Data published in paper PMC10328973.

Molecular target: UKNP5.2.1 E2E1-I53-50A trimer (hepatitis C virus genotype 5, strain UKNP5.2.1)

B1: chimeric HEPC74 HC – VRC01 LC (antibody, V domains shown)
VH: QVQLVQSGAEVKKPGSSVKVSCTTSGGTYINYAISWVRQAPGQGLEWVGGMSPISNTPKYAQKFQGRVTITADESTSTTYMELSSLRPEDTAVYYCARDLLKYCGGGNCHSLLVDPWGQGTLVTVSS
VL: EIVLTQSPGTLSLSPGETAIISCRTSQYGSLAWYQQRPGQAPRLVIYSGSTRAAGIPDRFSGSRWGPDYNLTISNLESGDFGVYYCQQYEFFGQGTKVQVD
With B1 the neutralisation of UKNP5.2.1 HCVpp, IC50 (the only HCVpp neutralised) was 4.4 µg/mL.
